In publication PMC2949602, “Genome-wide search identifies Ccnd2 as a direct transcriptional target of Elf5 in mouse mammary gland”:
Residue numbers refer to the chain shown, from its start.

T1: GST-Elf5 MT2 (R219A) (mouse, UniProt Q8VDK3 1-253, R219A)
T1 sequence: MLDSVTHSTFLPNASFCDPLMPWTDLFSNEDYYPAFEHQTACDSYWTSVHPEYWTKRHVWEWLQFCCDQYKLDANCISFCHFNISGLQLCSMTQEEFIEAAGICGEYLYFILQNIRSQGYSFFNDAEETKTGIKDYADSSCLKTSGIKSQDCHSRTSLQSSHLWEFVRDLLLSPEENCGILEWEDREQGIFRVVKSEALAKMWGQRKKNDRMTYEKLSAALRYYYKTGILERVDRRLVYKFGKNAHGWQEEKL

T2: GST-Elf5 MT1 (K216A) (mouse, UniProt Q8VDK3 1-253, K216A)
T2 sequence: T1 sequence with K216A, A219R

B1: Cyclin D2 upstream region 1 oligo (dsDNA)
DNA 1: CAGATTAGAAAGGAAAAGGATTACAGTAGT
DNA 2: GTGACTACTGTAATCCTTTTCCTTTCTAAT
B2: Cyclin D2 upstream region 2 oligo (dsDNA)
DNA 1: GAGCCAGCAGGATGCTTGACATTCCAGCTGCTGG
DNA 2: AGGCCAGCAGCTGGAATGTCAAGCATCCTGCTGG

What was measured:
GST-Elf5 MT2 (R219A) = biological target: T1, GST-Elf5 MT2 (R219A); assay: EMSA; 20 mM HEPES pH 7.9, 75 mM KCl, 2.5 mM MgCl2, 1 mM EDTA, 0.5 mM DTT, 10% glycerol, 1 ug poly(dA-dT), room temperature; 5% nondenaturing PAGE; conditions: protein: recombinant; label: 32P (Klenow fill-in with dCTP); 5' overhangs 3 nt each end as annealed, filled in by Klenow
GST-Elf5 MT1 (K216A) = biological target: T2, GST-Elf5 MT1 (K216A); assay: as above; conditions: protein: recombinant; label: 32P (Klenow fill-in with dCTP); 5' overhangs 3 nt each end as annealed, filled in by Klenow

| Binder | binding result (GST-Elf5 MT2 (R219A)) | binding result (GST-Elf5 MT1 (K216A)) |
| --- | --- | --- |
| B1 | no binding | no binding |
| B2 | no binding | no binding |
